We go through 28 sequences from the supplement of paper PMC9170038.

In the data set the test system is MS2 coat protein. The experiment in a line: apparent KD of MS2 coat protein; designed switch direction (-1 OFF switch, 1 ON switch): 1; higher = weaker reporter binding. Put shortly:
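RNA switches sharing common flanks were transcribed by stalled E. coli RNA polymerase on Illumina chips. A doubling series of SNAP-549-labelled MS2 coat protein, from 0.7 or 1.5 nM to 3 µM, was applied in Tris-HCl pH 7.5 buffer with KCl, MgCl2, BSA, DTT, tRNA and Tween-20. Each step lasted 0.8–1.5 h at the bottom of the series and 10–20 min at the top. Normalised cluster fluorescence was curve-fitted, giving apparent KD as the per-design median over clusters.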

Where [1] appears, read: input ligand: microRNA oligo, concentration not stated.
[2] abbreviates: Eterna round: R95, input ligand: FMN 200 uM.
Where [3] appears, read: Eterna round: R95, input ligand: microRNA oligo, concentration not stated.
Where [4] appears, read: Eterna round: R95, input ligand: none.

For “GUUACAUGAGGAUCACCCAUGUGUGUGUGGGAGUAAGUGUCUUAGGAUAUCUAUGAUUUAAGUUAAGAGAAGGAAGAUUGUUGU [SS-NG3-LRO01] (Eterna round: R96, puzzle: Same State NG 3)”, the “apparent KD of MS2 coat protein” value came to 479 nM (input ligand: FMN 200 uM), 261 nM under setting [1] and 395 nM (input ligand: none).
“GUUAGGAAUCUAGCAAACAUGAGGAUCACCCAUGUUAGUGGGAAGGAUAUGGUACAGAAACUGUACCAGAAGGUCUUAUUGUUU [Omei SS(NG) 3 AV9] (Eterna round: R96, puzzle: Same State NG 3)”: the “apparent KD of MS2 coat protein” value (input ligand: FMN 200 uM) is 580 nM, the “apparent KD of MS2 coat protein” value under setting [1] was 403 nM and the “apparent KD of MS2 coat protein” value (input ligand: none) is 439 nM.
Take “GUUAUACAUGAGGAUCACCCAUGUCAAUGUAGUCGAGGAUAUGGGCAGCUAUGAGGCGUACUAGAAGGCGAAGAGG [JL-ss1-3.11 ViennaUCT mod] (puzzle: Same State 1)”: the “apparent KD of MS2 coat protein” value was determined as 81.6 nM under setting [2], 234 nM under setting [3] and 197 nM under setting [4].
As to “GUUAUACAUGAGGAUCACCCAUGUCAAUGUAGUCGAGGAUAUGGGUAGCUAUGAGGCGUACUAGAAGGCGAGGAGU [JL-ss1-3.16 ViennaUCT mod] (Eterna round: R96, puzzle: Same State 1)”, the “apparent KD of MS2 coat protein” value is, setting by setting: (input ligand: FMN 200 uM) 503 nM; under setting [1], 246 nM; (input ligand: none) 477 nM.
“GUUAUACAUGAGGAUCACCCAUGUCAAUGUAGUCGAGGAUAUGGGUAGCUAUGAGGCGUACUAGAAGGCGAGGAGU [JL-ss1-3.16 ViennaUCT mod] (puzzle: Same State 1)”: the “apparent KD of MS2 coat protein” value under setting [3] came out at 90.4 nM.
For the sequence “GUUCCAAGGUGAGGAUAUGCAGAGGAUCACCCUGUAGAAGGCAUCAGGUGAGGAUAUGCAGAGGAUCACCCUGUAGAAGGCAUC [pwkr ssNG DX.10] (Eterna round: R96, puzzle: Same State NG 1)”, the “apparent KD of MS2 coat protein” value runs as follows: (input ligand: FMN 200 uM) 105 nM; under setting [1], 180 nM; (input ligand: none) 295 nM.
Turning to “GUUGAGAAAUAAGGAUAUGCAUGGAAGACACAUGAGGAUCACCCAUGUGGGAGGGAAACCAGGAGGUAGAAGGUAUUGGGAAAC [AK SSNG2-V2-23.1] (Eterna round: R96, puzzle: Same State NG 2)”, the “apparent KD of MS2 coat protein” value (input ligand: FMN 200 uM) amounted to 43.8 nM, the “apparent KD of MS2 coat protein” value under setting [1] was 28.7 nM and the “apparent KD of MS2 coat protein” value (input ligand: none) was determined as 49.1 nM.
“UAAAUGAAGUAAGGAUAUACAUGAGGAUCACUCGUAGAAGGUACUAUACAUGAGGAUCACCCAUGUGCCGGUCAGAAGACUGGA [Mat - Same State NG 1 - JL mod - D6] (Eterna round: R96, puzzle: Same State NG 1)”: the “apparent KD of MS2 coat protein” value (input ligand: FMN 200 uM) worked out at 804 nM, the “apparent KD of MS2 coat protein” value under setting [1] came out at 533 nM and the “apparent KD of MS2 coat protein” value (input ligand: none) was 943 nM.
Take “UAACGCGCAUGCAAGGAUAUGUGCAGAGCUACAUGAGGAUCACCCAUGUGGUUAUGCUAUUGAAAACAGAAGGUGCCCUCGCUCA [Ceties] (Eterna round: R96, puzzle: Same State 2)”: the “apparent KD of MS2 coat protein” value runs as follows: (input ligand: FMN 200 uM) 20.7 nM; under setting [1], 16.4 nM; (input ligand: none) 22.7 nM.
For “UAAGUAUGUUGAGGAUAUUAUGUUUAGUGUGAUGACAUGAGGAUCACCCAUGUGUUAUGAGUUUUUAAGAAGGCAACAUACUUA [JR_SSNG2_Sub091] (Eterna round: R96, puzzle: Same State NG 2)” the same measures were 35.1 nM, 41.7 nM and 55.2 nM.
Consider “UACAAUCUAUCUGAGGAUAUCAUGAACAAAACAUGAGGAUCACCCAUGUGCAGGAAAACUGCAUAUGAGAAGGCAGAUAGAUUGU [Mat - Same State 2 - Mod - D22] (puzzle: Same State 2)”, for which the “apparent KD of MS2 coat protein” value is, setting by setting: under setting [2], 51 nM; under setting [3], 1560 nM; under setting [4], 876 nM.
On to “UACAAUCUAUCUGAGGAUAUCAUGAAUAUAACAUGAGGAUCACCCAUGUGCAGGAAAACUGCAUAUGAGAAGGCAGAUAGAUUGU [salish99_ss2_r3_068] (puzzle: Same State 2)”, for which the “apparent KD of MS2 coat protein” value under setting [2] is 61.3 nM, the “apparent KD of MS2 coat protein” value under setting [3] is 49.2 nM and the “apparent KD of MS2 coat protein” value under setting [4] came out at 109 nM.
In the case of “UACAAUCUAUCUGAGGAUAUCAUGAAUUAUACAUGAGGAUCACCCAUGUGCAGGAAAACUGCAUAUGAGAAGGCAGAUAGAUUGU [salish99_ss2_r3_062] (puzzle: Same State 2)”, the “apparent KD of MS2 coat protein” value is 63.4 nM under setting [2], 43.6 nM under setting [3] and 183 nM under setting [4].
For the sequence “UACAAUCUAUCUGAGGAUAUCAUGAUUGUAACAUGAGGAUCACCCAUGUGCAGGAAAACUGCAUAUGAGAAGGCAGAUAGAUUGU [salish99_ss2_r3_071] (puzzle: Same State 2)”, the “apparent KD of MS2 coat protein” value was found to be 113 nM under setting [2], 78 nM under setting [3] and 708 nM under setting [4].
For “UACAUGAGGAUCACCCAUGUAGUCCAUGCACCGGACCGAAGCGAGGAUAUGGUCUGCAUCGGUGGCCAGAAGGCGCUUCCAGAA [Eternabot solution 26] (Eterna round: R96, puzzle: Same State NG 3)”, the “apparent KD of MS2 coat protein” value (input ligand: FMN 200 uM) is 24.7 nM, the “apparent KD of MS2 coat protein” value under setting [1] came out at 21.3 nM and the “apparent KD of MS2 coat protein” value (input ligand: none) was 46.7 nM.
For “UAGACAAGCUUUAUGUUCUUCCUUUUCCUACAUGAGGAUCACCCAUGUAGUCUGUCGAUUGAGAGAGUAGUUGAGAA [JR_SHM208A_Sub024] (puzzle: Sensor for hsa-mir-208a)”, the “apparent KD of MS2 coat protein” value by setting is: under setting [2], 17.8 nM; under setting [3], 16.5 nM; under setting [4], 18.2 nM.
Taken in the same sequence, the figures for “UAGAGAGGAAGCGAGGAUAUCGUGGGAGGAACAUGAGGAUCACCCAUGUGUGAUGUUGAGAGGGACGAGAAGGCGCUGGAAAUUA [JR_SS2_Sub081] (puzzle: Same State 2)” were 99.1 nM, 126 nM and 174 nM.
Take “UAGAGAGGAAGCGAGGAUAUCGUGUUAGGUACAUGAGGAUCACCCAUGUUGUAGGUAGAGGUAGGCGAGAAGGCGCAGGAGAGGG [JR_SS2_Sub093] (puzzle: Same State 2)”: the “apparent KD of MS2 coat protein” value by setting is: under setting [2], 56.3 nM; under setting [3], 47.1 nM; under setting [4], 83.8 nM.
Consider “UAGAGAGGAAGCGAGGAUAUCGUGUUAGGUACAUGAGGAUCACCCAUGUUUUAAGUAGAGAUAGGCGAGAAGGCGCAGGAGAAAA [JR_SS2_Sub088] (puzzle: Same State 2)”, for which the “apparent KD of MS2 coat protein” value reads like this: under setting [2], 28.6 nM; under setting [3], 26.7 nM; under setting [4], 30.2 nM.
For the sequence “UAGAUUAGAAGUUAACAUGAGGAUCACCCAUGUAUUGGAACAGAGGAUAUGCAUGUUUGAUAGUAGCAGAAGGCUGAAGGUGGA [JR_SSNG3_Sub025] (Eterna round: R96, puzzle: Same State NG 3)”, under setting [1], the “apparent KD of MS2 coat protein” value came out at 68.4 nM.
Regarding “UAGCUCGUGUGAGGAUAUGCCGCCGUUUCGGCUGCAGAAGGUGCUACGUUACAUGAGGAUCACCCAUGUCUCUGUUGUUUCGUC [salish99_SSNG1_r04_955] (Eterna round: R96, puzzle: Same State NG 1)”, under setting [1], the “apparent KD of MS2 coat protein” value was determined as 23.9 nM.
For the sequence “UAGUACAAGCUUUUUGCUUGUCUUAUUUAACAUGAGGAUCACCCAUGUAAGUUGAAAGUUAGAGAGUGCAGGUUGAA [JR_SHM208A_Sub051] (puzzle: Sensor for hsa-mir-208a)”, the “apparent KD of MS2 coat protein” value under setting [2] turned out to be 16.8 nM, the “apparent KD of MS2 coat protein” value under setting [3] came out at 21.9 nM and the “apparent KD of MS2 coat protein” value under setting [4] came out at 17.1 nM.
As for “UAGUACAUGCUUUUUGUCCGUCUUAGAUAACAUGAGGAUCACCCAUGUAAGGUGAAAGUUAUAUAGUUUAGGAAGAU [JR_SHM208A_Sub056] (puzzle: Sensor for hsa-mir-208a)”, the “apparent KD of MS2 coat protein” value is, setting by setting: under setting [2], 309 nM; under setting [3], 424 nM; under setting [4], 331 nM.
Consider “UAGUACAUGCUUUUUGUCUGUCUUAGAUCACAUGAGGAUCACCCAUGUUUGGUGAAAGUUAUUUUGUUUAUGACUAU [JR_SHM208A_Sub060] (puzzle: Sensor for hsa-mir-208a)”, for which the “apparent KD of MS2 coat protein” value runs as follows: under setting [2], 257 nM; under setting [3], 194 nM; under setting [4], 430 nM.
As to “UAGUAUUAACGAGGAUAUAAUAUGUUCAAUUUUUUAUAUUGUUUACAUGAGGAUCACCCAUGUUAUUAGAAGGCGUAUGGGAUU [JR_SSNG2_Sub082] (Eterna round: R96, puzzle: Same State NG 2)”, the “apparent KD of MS2 coat protein” value under setting [1] stood at 50.9 nM.
In the case of “UAGUGCAUUAGAGGAUAUUCUUACGACACGAGUAAGACAUGAGGAUCACCCAUGUCGUGACAUGGGAAGAAGGCUGAUGUGCUA [Omei SS(NG)2 Bv6] (Eterna round: R96, puzzle: Same State NG 2)”, the “apparent KD of MS2 coat protein” value (input ligand: FMN 200 uM) worked out at 12 nM, the “apparent KD of MS2 coat protein” value under setting [1] amounted to 27.1 nM and the “apparent KD of MS2 coat protein” value (input ligand: none) worked out at 35.8 nM.
Turning to “UAGUGCUGUUGAGAGGAUAUGCGGCGACGGACAUGAGGAUCACCCAUGUUAGCGACAGCGUUGCGGCAGAAGGCUCUGCCCGCUA [Soteed Omei mod 52] (puzzle: Same State 2)”, the “apparent KD of MS2 coat protein” value is, setting by setting: under setting [2], 13.1 nM; under setting [3], 27.4 nM; under setting [4], 33.3 nM.
In the case of “UAUCCAUAGAUAGGAUAUUAGAGAACAUGAGGAUCACCCAUGUUUGGCUUGGUUUUAAGCCAAUCUAAGAAGGAUCUUGAUGAA [SameState NG2 #10] (Eterna round: R96, puzzle: Same State NG 2)”, the “apparent KD of MS2 coat protein” value by setting is: (input ligand: FMN 200 uM) 22.1 nM; under setting [1], 66.5 nM; (input ligand: none) 72.1 nM.
